Among the data in PMC2671562 are Kd values, retold here.

In test [1] the target is ARNT PAS-B (Homo sapiens) (UniProt P27540). As to the kind of experiment: NMR. The conditions noted are these: cited from earlier work.
Test [2] addresses Drosophila PERIOD fragment lacking helix αF, dPERΔαF[232–538] (Drosophila melanogaster) (UniProt P07663). As to the kind of experiment: AUC; sedimentation equilibrium, interference optics, 10 °C, 25 mM HEPES pH 7.7, 100 mM NaCl, 2 mM DTE; four starting concentrations from stocks of 0.8–2 mg/ml; dimer to monomers, K D = 1/K A.

HIF-2α PAS-B, sequence (Q99814 239-350): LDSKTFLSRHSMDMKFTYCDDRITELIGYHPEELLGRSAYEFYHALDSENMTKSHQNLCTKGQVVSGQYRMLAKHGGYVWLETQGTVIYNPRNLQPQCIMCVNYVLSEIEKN
ARNT PAS-B, sequence (P27540 356-470): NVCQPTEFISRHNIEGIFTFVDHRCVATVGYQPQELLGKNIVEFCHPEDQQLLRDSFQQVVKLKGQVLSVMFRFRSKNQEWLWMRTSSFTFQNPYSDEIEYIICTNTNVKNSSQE

ARNT PAS-B (from UniProt P27540): the Kd in test [1] was 500 µM.
For “Drosophila PERIOD fragment lacking helix αF, dPERΔαF[232–538] (from UniProt P07663 232-538) (domain or fragment)”, the Kd in test [2] came out at 256 µM.
Take HIF-2α PAS-B (from UniProt Q99814): the Kd in test [1] is 30 µM.
